Source: patent US20060216716A1, “Immunologic activity measures for t helper on-associated conditions” (priority 2003, published 2006)

Key:
[1] = test system: CXCL9; assay: activated CXCL9 levels (interferon-gamma and tumor necrosis factor-alpha stimulation) in Crohn's Disease subjects by medication usage; type: in vivo; conditions: disease active or in remission, FIG. 7
Experimental: (§1) Following informed consent, a heparinized whole blood sample. […] Finally, and the plate is again washed repeatedly.
In a subsequent experiment, a combination of stimulating cytokines (interferon-gamma and tumor necrosis factor-alpha) was administered to Crohn's Disease patients and the effects of medication studied.

[2] = test system: CXCL10; conditions: within individual Crohn's Disease subjects; interferon-gamma activation; FIG. 4
Experimental: A pro-inflammatory stimulant, e.g., interferon-gamma, is added at a concentration of approximately 1000 units/cc and incubated at 37° C. […] At an appropriate time interval, e.g., 3 hours, the samples are centrifuged to allow collection of the plasma, or serum (the non-cell containing portion of the blood). […] In a standard sandwich ELISA detection, the plasma/serum is allowed to incubate with a capture antibody. Then, the sample is removed, the plate is washed multiple times and an antibody labeled with an enzyme is applied (detection antibody). Finally, and the plate is again washed repeatedly. Depending on the enzyme used for the detection antibody, a color change becomes evident over time after addition of the proper enzyme substrate, which can then be detected using specified light wavelength measurements. The light absorbance can be measured using a standard ELISA plate reader, which in turn produces a number. By comparing this number to a standard curve for CXCL10, a quantified amount of CXCL10 can be determined, or alternatively, the absorbance number itself may be used.

[3] = test system: WBC; assay: ex vivo blood stimulation, CXCL9 levels; type: cell-based
Description: as §1
The effects of different forms of activation and a combination of activating cytokines on CXCL9 levels in Crohn's Disease subjects was also studied.

[4] = test system: WBC; assay: ex vivo whole blood stimulation, CXCL10 release by WBC (ELISA); type: cell-based; conditions: 3 hours post stimulation; subjects with Crohn's Disease or Ulcerative Colitis; FIG. 1
Description: as §1
This response also occurs in normal individuals as well.

## S=c1nc[nH]c2nc[nH]c12 [6 MP]
[1]
  effect of medication usage on activated CXCL9 levels: brought about a change

## azathioprine/6MP
[2]
  effect of medication on activated CXCL10 levels over time: significant changes

B1: interferon-gamma (protein, UniProt P01579 24-161, looked up)
Interferon gamma: QDPYVKEAENLKKYFNAGHSDVADNGTLFLGILKNWKEESDRKIMQSQIVSFYFKLFKNFKDDQSIQKSVETIKEDMNVKFFNSNKKKRDDFEKLTNYSVTDLNVQRKAIHELIQVMAELSPAAKTGKRKRSQMLFRG
notes: pro-inflammatory stimulant cytokine added to the blood sample
[3]; Crohn's Disease subjects, FIG. 6
  serum CXCL9 concentration levels after stimulation: increased
[3]; Ulcerative Colitis subjects, active and inactive disease, FIG. 8
  serum CXCL9 concentration levels after stimulation: increased
[4]
  CXCL10 response following stimulation: a larger spread and an increase in the measurable values
